Target: 2019-nCoV RBD protein with C-terminal hexa-His tag (2019-nCoV (SARS-CoV-2), UniProt P0DTC2 319-541)
Test: SPR, Biacore 8K, antibody captured on protein A chip, RBD as analyte
Description: Surface plasmon resonance analysis was performed using Biacore 8K (Biacore Inc.).
Binding kinetic constants were calculated using BIAevaluation software 8K (Biacore, inc.) software.

B1: GH12 antibody (antibody, human IgG1, lambda, V domains shown)
VH: EVQLVESGGGLVQPGGSLRLSCAASGFTFSSYWMSWVRQAPGKGLEWVANIKQDGSEKYYVDSVKGRFTISRDNAKNSLYLQMNSLRAEDTAVYYCTRAGWVRGAFDIWGQGTMVTVSS
VL: NFMLTQPHSVSESPGKTVTISCTGSSGSIASNYVQWYQQRPGSAPTTVIYEDNQRPSGVPDRFSGSIDSSSNSASLTISGLKTEDEADYYCQSYDSSNLWVFGGGTKLTVLG
notes: also called human antibody GH12
Kd: 5.87 nM
koff: 0.0173 s⁻¹
kon: 2.95e+06 M⁻¹ s⁻¹

— US20230073067A1 (INSTITUTE OF MICROBIOLOGY CHINESE ACADEMY OF SCIENCE, published 2023)
